Laboratory results as given in FireProtDB (doi:10.1093/protein/gzi067).
Values joined by “and” are separate entries in the source; they are usually repeats but may differ in a detail not shown here. Equal values may be shown once.

Settings: Bos taurus, pH 7, 25 °C, CD, MOPS 30 mM, reversible: yes (partial), whole UniProt chain shown

B1: Cytochrome b5 wild type, P00171 (protein)
chain: MAEESSKAVKYYTLEEIQKHNNSKSTWLILHYKVYDLTKFLEEHPGGEEVLREQAGGDATENFEDVGHSTDARELSKTFIIGELHPDDRSKITKPSESIITTIDSNPSWWTNWLIPAISALFVALIYHLYTSEN
denaturant midpoint (higher = more stable) (GdnHCl): 1.27 M | unfolding free energy (GdnHCl): 3.2 kcal/mol | denaturant midpoint (higher = more stable) (GdnSCN): 1.52 M and 2.04 M
